T1: human TNFR2 (expressed on cells) (human, UniProt P20333 23-461)
T1 construct: also called hTNFR2; human TNF Receptor 2
T1 sequence: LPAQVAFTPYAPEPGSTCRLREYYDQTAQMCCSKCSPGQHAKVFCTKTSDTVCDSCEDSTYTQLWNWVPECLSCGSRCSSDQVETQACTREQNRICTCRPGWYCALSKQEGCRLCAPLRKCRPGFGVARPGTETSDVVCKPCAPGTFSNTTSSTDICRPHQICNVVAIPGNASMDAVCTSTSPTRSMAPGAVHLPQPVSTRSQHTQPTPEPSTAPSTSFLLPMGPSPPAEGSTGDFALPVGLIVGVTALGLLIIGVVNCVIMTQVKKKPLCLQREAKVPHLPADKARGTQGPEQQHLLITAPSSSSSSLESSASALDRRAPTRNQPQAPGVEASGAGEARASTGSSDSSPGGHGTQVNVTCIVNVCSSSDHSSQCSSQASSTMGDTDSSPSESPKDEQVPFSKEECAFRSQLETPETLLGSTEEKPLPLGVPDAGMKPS

T2: dog (Canine) TNFR2 (on transfected CHO cells) (dog)
T2 construct: also called dTNFR2
T2 chain: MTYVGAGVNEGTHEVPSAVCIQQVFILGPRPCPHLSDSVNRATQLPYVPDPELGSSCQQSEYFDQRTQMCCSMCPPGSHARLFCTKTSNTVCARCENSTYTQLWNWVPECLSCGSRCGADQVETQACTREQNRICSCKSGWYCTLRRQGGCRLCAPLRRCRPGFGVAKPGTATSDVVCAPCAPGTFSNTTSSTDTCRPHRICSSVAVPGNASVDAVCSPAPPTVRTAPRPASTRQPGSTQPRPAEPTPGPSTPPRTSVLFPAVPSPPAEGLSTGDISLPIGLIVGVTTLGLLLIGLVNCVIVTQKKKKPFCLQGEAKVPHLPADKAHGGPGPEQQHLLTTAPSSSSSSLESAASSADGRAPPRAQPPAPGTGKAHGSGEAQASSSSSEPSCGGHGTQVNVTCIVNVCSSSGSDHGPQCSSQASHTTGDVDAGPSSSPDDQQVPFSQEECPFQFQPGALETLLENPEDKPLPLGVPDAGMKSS

T3: His-tagged human TNFR1 (Human TNFR1/CD120a/TNFRSF1A Protein, His Tag, Acrobiosystems Cat #: TN1-5222) (human, UniProt P19438 30-211)
T3 construct: Bought protein; also called hTNFR1-His; hTNFR 1-His; not shown: His tag
T3 sequence (looked up): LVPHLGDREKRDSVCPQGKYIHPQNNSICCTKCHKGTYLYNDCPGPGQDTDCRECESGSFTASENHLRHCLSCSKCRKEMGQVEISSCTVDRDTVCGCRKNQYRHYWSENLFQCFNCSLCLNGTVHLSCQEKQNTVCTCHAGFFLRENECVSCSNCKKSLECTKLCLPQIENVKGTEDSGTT

T4: ΔCRD3-TNFR2 protein (with CRD3 deletion), on CHO-S cells (human, UniProt P20333 23-461)
T4 construct: also called CHO-SΔCRD3-TNFR2; TNFR2 lacking CRD3
T4 sequence: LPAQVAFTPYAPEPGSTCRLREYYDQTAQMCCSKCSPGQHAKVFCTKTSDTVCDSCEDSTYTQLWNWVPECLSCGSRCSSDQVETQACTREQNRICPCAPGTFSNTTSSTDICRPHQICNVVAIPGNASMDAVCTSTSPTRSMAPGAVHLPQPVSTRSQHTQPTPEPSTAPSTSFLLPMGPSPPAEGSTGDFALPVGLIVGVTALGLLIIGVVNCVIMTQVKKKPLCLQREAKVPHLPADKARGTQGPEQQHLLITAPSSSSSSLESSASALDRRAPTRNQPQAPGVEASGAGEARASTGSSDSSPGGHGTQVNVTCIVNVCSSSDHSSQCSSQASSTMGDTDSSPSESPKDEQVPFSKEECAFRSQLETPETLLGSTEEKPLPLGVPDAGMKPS


Key:
[1] = biological target: T1, human TNFR2 (expressed on cells); assay: flow cytometry competition, CHO cells with human TNFR2, antibody 0.625 µg/mL, Biotin-hTNFα 0.5 µg/mL
Procedure: 30 μl of Biotin-hTNFα (Acro Biosystems, Cat #: TNA-H82E1) was added to each well (with a final concentration of 0.5 μg/mL in each well). The cells with Biotin-hTNFα and the antibodies were incubated at 4° C. for 30 minutes.
The signals for AF647 and PE were determined by flow cytometry (Thermo Attune NX).

[2] = biological target: T2, dog (Canine) TNFR2 (on transfected CHO …); assay: flow cytometry on transfected CHO cells
Procedure: 30 μl CHO cells (1×10⁵ cells) were added to each well. 30 μl purified anti-TNFR2 antibodies (10 μg/mL) (as listed in Table 4) were added to each well and were incubated at 4° C. for 30 minutes.
After two washes with PBS (1600 rmp, 6 min), 50 μl of Alexa Fluor labeled anti-human IgG Fc antibody […] was added into each well 1:500 dilution, incubated at 4° C. for 15 minutes, followed by a PBS wash (1200 rmp, 5 min). The signals for AF647 were detected by flow cytometry.

[3] = biological target: T3, His-tagged human TNFR1 (Human …); assay: SPR Biacore 8K, antibody captured on Protein A chip
Procedure: The binding affinity of the anti-TNFR2 antibodies to human TNFR2 and TNFR1 (Tumor necrosis factor receptor 1) were measured using surface plasmon resonance (SPR) using Biacore (Biacore, INC, Piscataway NJ) 8K biosensor equipped with pre-immobilized Protein A sensor chips.
Purified anti-TNFR2 antibodies were diluted to 1 μg/mL and then injected into the Biacore 8K biosensor at 10 μL/min for about 50 seconds to achieve a desired protein density (e.g., about 50 response units (RU)). […] Dissociation was monitored for 600 seconds. The chip was regenerated after the last injection of each titration with Glycine (pH 2.0, 30 μL/min for 30 seconds).

[4] = biological target: T4, ΔCRD3-TNFR2 protein (with CRD3 …); assay: FACS on CHO-S cells with ΔCRD3-TNFR2
Source text: TNFR2 has four cysteine rich domains (CRD). In another experiment, FACS was used to detect the binding of anti-hTNFR2 antibodies to TNFR2 proteins with different structural domains. Secondary antibody (Alexa Fluor® 647 AffiniPure F(ab′) 2 Fragment Goat Anti-Human IgG, Fcγ fragment specific, Jackson ImmunoResearch Laboratories, Inc., Cat #: 151524) was used. The fluorescence-labeled secondary antibody can attach to the Fc region of the anti-hTNFR2 antibodies so that the anti-hTNFR2 antibodies that are bound to the ΔCRD cells can be detected by FACS. Specifically, ΔCRD1-TNFR2 protein (with CRD1 deleteion), ΔCRD2-TNFR2 protein (with CRD2 deleteion), ΔCRD3-TNFR2 protein (with CRD3 deleteion) or ΔCRD4-TNFR2 protein (with CRD4 deleteion) were expressed in CHO-S cells respectively, and then the binding between the cells and different anti-hTNFR2 antibodies was detected.

Row | Binder | percentage of tested cells that had Streptavidin signals [1] [%] | binding result [2] | binding result [4] | binding result [3]
1 | BC-1C3-IgG1 (antibody, V domains shown, Human VH/VL joined to the human IgG1 subtype) VH: QVQLVESGGGVVHPGKSLRLSCAASGFTFNIYGMHWVRQAPGKGLEWVALISYDGNDKYFADSVKGRFTISRDNSKNTLYLQMNSLRAEDTAVYYCAKAVDTAVVTFFDYWGQGTLVTVSS VL: EIVMTQSPVTLSVSPGERATLSCRASQSVSSNLAWYQQKPGQAPRLLIYSASTRATGIPARFSGSGSGTEFTLTISSLQSEDLAVYYCQQYSNWPFTFGPGTKVDIK | 77.3 | no binding (tested: 10 µg/mL) | no binding | no binding (tested: up to 200 nM analyte)
2 | BC-1B6-IgG1 (antibody, V domains shown, Human VH/VL joined to the human IgG1 subtype) VH: QVQLVESGGGVVQPGRSLRLSCAASGFTFSNFGMHWVRQAPGKGLEWVAVIWYEGSDKYYADSVKGRFTISRDNSKNTLYLQMNSLRAEDTAVYYCARDSSWGFLLYGMDVWGQGTTVTVSS VL: DVVMTQSPLSLPVTLGQPASISCRSSRSLEYSDGNTYLNWFQQRPGQSPRRLIYKVSNRDSGVPDRFSGSGSGTAFTLKISGVEAEDVGVYYCMQGTHWPPTFGGGTKVEIK | 80.4 | no binding (tested: 10 µg/mL) |  | no binding (tested: up to 200 nM analyte)
3 | BC-1A8-IgG1 (antibody, V domains shown, Fully human VH/VL joined to the human IgG1 subtype, kappa light chain (RenMab mice)) VH: QVQLQQSGPGLVKPSQTLSLTCAISGDSVSSNSAAWNWIRQSPSRGLEWLGRTYYRSKWYNDYALSVKSRITINPETSKNQFSLQLNSVTPEDTAVYYCAREDGVGGTKDYFDYWGQGTLVTVSS VL: DIQMTQSPSSLSASVGDRVTITCQASQDIDNYLNWYQQKPGKAPKLLIYDVSNLEIGVPSRFSGSGSGTDFTFTISSLQPEDIATYYCQQYDNLPLTFGQGTRLEIK | 58.6 | no binding (tested: 10 µg/mL) | no binding | no binding (tested: up to 200 nM analyte)

Now from value to binder, other results behind:

Row | percentage of tested cells that had Streptavidin signals [1] [%] | binding result [2] | binding result [4] | Binder | binding result [3]
4 | 60.2 | no binding (tested: 10 µg/mL) |  | BC-1F10-IgG1 (antibody, V domains shown, Human VH/VL joined to the human IgG1 subtype) VH: QVQLQQWGAGLLKPSETLSLICAVYDGSFSGDYWSWIRQPPGKGLEWIGEINHSGSTNYNPSLKSRVTISVDTSKNQFSLKLSSVTAADTAVYYCARGHWNYDYYYGMDVWGQGTTVTVSS VL: not shown | no binding (tested: up to 200 nM analyte)
5 | 61.9 | no binding (tested: 10 µg/mL) | no binding | BC-1F4-IgG1 (antibody, V domains shown, Human VH/VL joined to the human IgG1 subtype) VH: QVQLQQSGPGLVKPSQTLSLTCAISGDSVSSDSSAWNWIRQSPSRGLEWLGRTYYRSKWYNDYTVSVKSRITINPDTSKNQFSLQLNSVTPEDTAVYYCAREDGVGGTKDYFDYWGQGTLVTVSS VL: DIQMTQSPSSLSASVGDRVTITCQASQDISNYLNWYQQKPGKAPKLLIYDASNLETGVPSRFSGSGSGTDFTFTINSLQPEDFATYFCQQYDNLPITFGQGTRLEIK | no binding (tested: up to 200 nM analyte)

From patent US20250019454A1 (BIOCYTOGEN PHARMACEUTICALS BEIJING, published 2025)
